Experimental data from patent US20230235013A1 (MABSOLVE, published 2023).
Numbering of substitutions follows the chain as printed. Names may count otherwise.

T1: mouse FcRn (Sino Biological Cat. No. CT029-M08H) (mouse, UniProt Q61559 22-297; P01887 21-119)
T1 construct: Bought protein, captured on an anti-histidine chip
T1 sequence (looked up): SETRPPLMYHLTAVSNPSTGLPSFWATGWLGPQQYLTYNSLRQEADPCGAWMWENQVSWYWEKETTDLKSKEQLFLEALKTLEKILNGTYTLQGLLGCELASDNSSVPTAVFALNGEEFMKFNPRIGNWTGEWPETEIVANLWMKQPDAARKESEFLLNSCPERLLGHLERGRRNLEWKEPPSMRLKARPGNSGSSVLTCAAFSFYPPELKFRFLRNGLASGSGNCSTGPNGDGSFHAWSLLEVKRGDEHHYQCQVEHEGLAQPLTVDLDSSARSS
T1 sequence (b2m, looked up): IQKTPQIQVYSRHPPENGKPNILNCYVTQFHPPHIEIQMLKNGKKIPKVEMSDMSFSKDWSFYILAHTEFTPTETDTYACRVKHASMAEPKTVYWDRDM

B1: anti-CD20 (rituximab) human IgG1 G236R (antibody)
heavy: not shown
light: QIVLSQSPAILSASPGEKVTMTCRASSSVSYIHWFQQKPGSSPKPWIYATSNLASGVPVRFSGSGSGTSYSLTISRVEAEDAATYYCQQWTSNPPTFGGGTKLEIKRTVAAPSVFIFPPSDEQLKSGTASVVCLLNNFYPREAKVQWKVDNALQSGNSQESVTEQDSKDSTYSLSSTLTLSKADYEKHKVYACEVTHQGLSSPVTKSFNRGEC
notes: EU numbering; also called 2-81; copies: 2 + 2
B2: anti-CD20 (rituximab variable regions) human IgG2 L234Q/L235S (antibody)
heavy: QVQLQQPGAELVKPGASVKMSCKASGYTFTSYNMHWVKQTPGRGLEWIGAIYPGNGDTSYNQKFKGKATLTADKSSSTAYMQLSSLTSEDSAVYYCARSTYYGGDWYFNVWGAGTTVTVSSASTKGPSVFPLAPCSRSTSESTAALGCLVKDYFPEPVTVSWNSGALTSGVHTFPAVLQSSGLYSLSSVVTVPSSNFGTQTYTCNVDHKPSNTKVDKTVERKCCVECPPCPAPPQSGPSVFLFPPKPKDTLMISRTPEVTCVVVDVSHEDPEVQFNWYVDGVEVHNAKTKPREEQFNSTFRVVSVLTVVHQDWLNGKEYKCKVSNKGLPAPIEKTISKTKGQPREPQVYTLPPSREEMTKNQVSLTCLVKGFYPSDIAVEWESNGQPENNYKTTPPMLDSDGSFFLYSKLTVDKSRWQQGNVFSCSVMHEALHNHYTQKSLSLSPGK
light: B1 light
notes: also called 11.144; copies: 2 + 2
B3: anti-CD20 (rituximab) human IgG1 L234Q/L235R/G236R (antibody)
heavy: QVQLQQPGAELVKPGASVKMSCKASGYTFTSYNMHWVKQTPGRGLEWIGAIYPGNGDTSYNQKFKGKATLTADKSSSTAYMQLSSLTSEDSAVYYCARSTYYGGDWYFNVWGAGTTVTVSSASTKGPSVFPLAPSSKSTSGGTAALGCLVKDYFPEPVTVSWNSGALTSGVHTFPAVLQSSGLYSLSSVVTVPSSSLGTQTYICNVNHKPSNTKVDKKVEPKSCDKTHTCPPCPAPEQRRGPSVFLFPPKPKDTLMISRTPEVTCVVVDVSHEDPEVKFNWYVDGVEVHNAKTKPREEQYNSTYRVVSVLTVLHQDWLNGKEYKCKVSNKALPAPIEKTISKAKGQPREPQVYTLPPSRDELTKNQVSLTCLVKGFYPSDIAVEWESNGQPENNYKTTPPVLDSDGSFFLYSKLTVDKSRWQQGNVFSCSVMHEALHNHYTQKSLSLSPGK
light: B1 light
notes: EU numbering; also called 2-32; copies: 2 + 2
B4: anti-CD20 (rituximab) human IgG1 L234D/L235S/G236R (antibody)
heavy: B3 heavy with Q238D, R239S
light: B1 light
notes: EU numbering; also called 2-10; 1-29; copies: 2 + 2
B5: anti-CD20 (rituximab) human IgG1 G236R/L328R (antibody)
heavy: not shown
light: B1 light
notes: EU numbering; also called 2-68; copies: 2 + 2
B6: anti-CD20 (rituximab) human IgG1 L235S/G236R (antibody)
heavy: not shown
light: B1 light
notes: EU numbering; also called 2-80; copies: 2 + 2
B7: anti-CD20 (rituximab) human IgG1 L234Q/L235S/G236R/M252Y/S254T/T256E (antibody)
heavy: B3 heavy with R239S, M256Y, S258T, T260E
light: B1 light
notes: EU numbering; also called 10.145; copies: 2 + 2
B8: anti-CD20 (rituximab) human IgG1 L234Q/G236R (antibody)
heavy: not shown
light: B1 light
notes: EU numbering; also called 2-30; copies: 2 + 2
B9: anti-CD20 (rituximab) human IgG1 L234Q/L235S, sample 2-82 (antibody)
heavy: not shown
light: B1 light
notes: EU numbering; copies: 2 + 2
B10: anti-CD20 (rituximab) human IgG1 L234R/L235R/G236R (antibody)
heavy: B3 heavy with Q238R
light: B1 light
notes: EU numbering; also called 2-43; copies: 2 + 2
B11: anti-CD20 (rituximab) human IgG1 L235G/G236R (antibody)
heavy: not shown
light: B1 light
notes: EU numbering; also called 2-83; copies: 2 + 2
B12: anti-CD20 (rituximab) human IgG1 L234Q/L235D/G236R (antibody)
heavy: B3 heavy with R239D
light: B1 light
notes: EU numbering; also called 2-28; copies: 2 + 2
B13: anti-CD20 (rituximab) human IgG1 L234Q/L235S/G236R/T250Q/M428L (antibody)
heavy: B3 heavy with R239S, T254Q, M432L
light: B1 light
notes: EU numbering; also called 10.146; copies: 2 + 2
B14: anti-CD20 (rituximab) human IgG1 L235A/G236R (antibody)
heavy: not shown
light: B1 light
notes: EU numbering; also called 2-79; copies: 2 + 2
B15: anti-CD20 (rituximab) human IgG1 L234Q/L235A/G236R (antibody)
heavy: not shown
light: B1 light
notes: EU numbering; also called 2-27; copies: 2 + 2

What was measured:
[1] = molecular target: T2, human FcRn (R&D Systems Cat. No. 8639-Fc) (human, UniProt P55899 24-297; P61769 21-119); assay: SPR, FcRn captured via anti-His, pH 6.0;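 note: SPR binding signal relative to the reference cell, corrected by subtracting the response of a blank sample of running buffer alone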
[2] = molecular target: T1, mouse FcRn (Sino Biological Cat. No. …); assay: SPR, FcRn captured via anti-His, pH 6.0;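 note: SPR binding signal relative to the reference cell, corrected by subtracting the response of a blank sample of running buffer alone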
[3] = molecular target: T3, cynomolgus monkey FcRn (Sino Biological Cat. No. CT031-C08H) (cynomolgus monkey, UniProt Q8SPV9 24-297; Q8SPW0 21-119); assay: SPR, FcRn captured via anti-His, pH 6.0;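 note: SPR binding signal relative to the reference cell, corrected by subtracting the response of a blank sample of running buffer alone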
T3 construct: Bought protein, captured on an anti-histidine chip; also called cynomolgus FcRn

[4] = molecular target: T4, C-terminus biotinylated human FcRn attached to Streptavidin-SmBiT (FcRn-SAv-SmBiT) (human, UniProt P55899 24-297; P61769 21-119, limits assumed, C-terminus biotinylated (AviTag), attached to Streptavidin-SmBiT); assay: NanoBiT FcRn competition immunoassay, competitor Tracer-LgBiT human IgG, pH 6.0
T4 construct: Kit reagent; also called hFcRn-AviTag

[5] = molecular target: T5, Human C1q (Sigma Cat. No. 20476), HRP-labelled (human, UniProt P02745 23-245; P02746 28-253; P02747 29-245); assay: ELISA, antibody coated, HRP-C1q; Expt 1, buffer alone 0.053
T5 construct: Coupled to horse-radish peroxidase with Lightning-Link kit; also called HRP-labelled C1q

[6] = molecular target: T5, Human C1q (Sigma Cat. No. 20476), …; assay: ELISA, antibody coated, HRP-C1q; Expt 2, buffer alone 0.051
[7] = molecular target: T2, human FcRn (R&D Systems Cat. No. …); assay: SPR, FcRn captured; Expt 1
[8] = molecular target: T2, human FcRn (R&D Systems Cat. No. …); assay: SPR, FcRn captured; Mean
[9] = molecular target: T5, Human C1q (Sigma Cat. No. 20476), …; assay: ELISA, antibody coated, HRP-C1q; Expt 2, buffer alone 0.091
[10] = molecular target: T2, human FcRn (R&D Systems Cat. No. …); assay: SPR, FcRn captured; Expt 2
[11] = molecular target: T2, human FcRn (R&D Systems Cat. No. …); assay: SPR, FcRn captured; Expt 3
[12] = molecular target: T5, Human C1q (Sigma Cat. No. 20476), …; assay: ELISA, antibody coated, HRP-C1q; Expt 1, buffer alone 0.061

Row | Corrected response (RU) [1] | Corrected response (RU) [2] | Corrected response (RU) [3] | also measured | Binder
1 | 570 RU | 173 RU | 1290 RU |  | B1
2 |  |  |  | Mean binding activity (% of wild-type reference) [4]: 143 % of wild-type reference | B2
3 | 533 RU | 180 RU | 1240 RU |  | B3
4 | 507 RU | 145 RU | 1200 RU |  | B4
5 | 567 RU | 206 RU | 1290 RU |  | B5
6 | 530 RU | 189 RU | 1220 RU |  | B6
7 |  |  |  | Mean Absorbance [5]: 0.052 absorbance (450 nm); Mean Absorbance [6]: 0.056 absorbance (450 nm); Mean binding activity (% of wild-type reference) [4]: 3940 % of wild-type reference | B7
8 |  |  |  | Corrected and normalised response (% of wild-type reference) [7]: 100 % of wild-type reference; Corrected and normalised response (% of wild-type reference) [8]: 99.3 % of wild-type reference; Mean Absorbance [9]: 0.089 absorbance (450 nm); Corrected and normalised response (% of wild-type reference) [10]: 99 % of wild-type reference; Corrected and normalised response (% of wild-type reference) [11]: 99 % of wild-type reference | B8
9 | 509 RU | 142 RU | 1170 RU |  | B9
10 | 570 RU | 181 RU | 1300 RU | Mean Absorbance [12]: 0.029 absorbance (450 nm); Corrected and normalised response (% of wild-type reference) [7]: 106 % of wild-type reference; Corrected and normalised response (% of wild-type reference) [8]: 108 % of wild-type reference; Corrected and normalised response (% of wild-type reference) [10]: 108 % of wild-type reference; Corrected and normalised response (% of wild-type reference) [11]: 108 % of wild-type reference | B10
11 | 547 RU | 146 RU | 1250 RU |  | B11
12 | 490 RU | 170 RU | 1160 RU |  | B12
13 |  |  |  | Mean Absorbance [5]: 0.051 absorbance (450 nm); Mean Absorbance [6]: 0.062 absorbance (450 nm); Mean binding activity (% of wild-type reference) [4]: 650 % of wild-type reference | B13
14 | 540 RU | 168 RU | 1240 RU |  | B14
15 | 513 RU | 154 RU | 1220 RU | Mean Absorbance [12]: 0.048 absorbance (450 nm); Corrected and normalised response (% of wild-type reference) [7]: 94.5 % of wild-type reference; Corrected and normalised response (% of wild-type reference) [8]: 93.5 % of wild-type reference; Corrected and normalised response (% of wild-type reference) [10]: 93.4 % of wild-type reference; Corrected and normalised response (% of wild-type reference) [11]: 92.8 % of wild-type reference | B15
